Measured values: patent publication US10745460B2, “Peptides and combination of peptides for use in immunotherapy against various tumors” (Immatics Biotechnologies GmbH, priority 2015, dated 2020)

Each substance was assayed against HLA-A*02:01 (Homo sapiens, UniProt P04439, D140Y/D185E/D98H/E176V/E277Q/G131W/G231S/I119V/I121R/I166T/I218V/L300P/L318F/N151K/N90K/P208A/P217A/Q86G/Q94H/R138H/R169H/T345S) (assay: MHC binding assay: UV-ligand exchange with β2m ELISA (peptide exchange yield)). Details: binding to HLA-A*02:01 evaluated by peptide exchange yield (UV-ligand exchange, β2m ELISA).
Summary of the method: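 Exchange yield is an ELISA read-out: complexes diluted 100-fold, captured on streptavidin plates, detected with HRP anti-β2m and TMB at 450 nm. Standard curve from refolded HLA-A*02:01/MLA-001 (15-500 ng/ml); complexes made by UV-triggered displacement of a photolabile ligand by test peptide.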

Substance | Peptide exchange
233 (SLFESLEYL; listed as Homo sapiens) [compound 233] | +++ (≥50 = +++)
234 (VLLNEILEQV; listed as Homo sapiens) [compound 234] | ++++ (≥75% = ++++)
235 (SLLNQPKAV; listed as Homo sapiens) [compound 235] | ++ (≥20% = ++)
236 (KMSELQTYV; listed as Homo sapiens) [compound 236] | +++ (≥50 = +++)
237 (ALLEQTGDMSL; listed as Homo sapiens) [compound 237] | +++ (≥50 = +++)
238 (HLQEKLQSL; listed as Homo sapiens) [compound 238] | ++ (≥20% = ++)
239 (VIIKGLEEITV; listed as Homo sapiens) [compound 239] | +++ (≥50 = +++)
241 (KQFEGTVEI; listed as Homo sapiens) [compound 241] | +++ (≥50 = +++)
242 (KLQEEIPVL; listed as Homo sapiens) [compound 242] | +++ (≥50 = +++)
243 (GLAEFQENV; listed as Homo sapiens) [compound 243] | ++ (≥20% = ++)
244 (NVAEIVIHI; listed as Homo sapiens) [compound 244] | +++ (≥50 = +++)
245 (ALLEEEEGV; listed as Homo sapiens) [compound 245] | ++ (≥20% = ++)
246 (ALAGIVTNV; listed as Homo sapiens) [compound 246] | +++ (≥50 = +++)
247 (NLLIDDKGTIKL; listed as Homo sapiens) [compound 247] | ++ (≥20% = ++)
248 (VLMQDSRLYL; listed as Homo sapiens) [compound 248] | +++ (≥50 = +++)
249 (YLYQILQGI; listed as Homo sapiens) [compound 249] | +++ (≥50 = +++)
250 (LMQDSRLYL; listed as Homo sapiens) [compound 250] | +++ (≥50 = +++)
251 (LLWGNLPEI; listed as Homo sapiens) [compound 251] | +++ (≥50 = +++)
252 (SLMEKNQSL; listed as Homo sapiens) [compound 252] | ++ (≥20% = ++)

Other lines, results leading:

Peptide exchange | Substance
+++ (≥50 = +++) | 253 (KLLAVIHEL; listed as Homo sapiens) [compound 253]
++ (≥20% = ++) | 254 (ALGDKFLLRV; listed as Homo sapiens) [compound 254]
+++ (≥50 = +++) | 255 (FLMKNSDLYGA; listed as Homo sapiens) [compound 255]
+++ (≥50 = +++) | 256 (FLNDIFERI; listed as Homo sapiens) [compound 256]
+++ (≥50 = +++) | 257 (KLIDHQGLYL; listed as Homo sapiens) [compound 257]
++ (≥20% = ++) | 258 (QLVQRVASV; listed as Homo sapiens) [compound 258]
+ (≥10% = +) | 259 (GPGIFPPPPPQP; listed as Homo sapiens) [compound 259]
+++ (≥50 = +++) | 260 (ALNESLVEC; listed as Homo sapiens) [compound 260]
+++ (≥50 = +++) | 261 (GLAALAVHL; listed as Homo sapiens) [compound 261]
+++ (≥50 = +++) | 262 (LLLEAVWHL; listed as Homo sapiens) [compound 262]
+++ (≥50 = +++) | 263 (SIIEYLPTL; listed as Homo sapiens) [compound 263]
++ (≥20% = ++) | 264 (TLHDQVHLL; listed as Homo sapiens) [compound 264]
+++ (≥50 = +++) | 265 (FLLDKPQDLSI; listed as Homo sapiens) [compound 265]
++ (≥20% = ++) | 266 (FLLDKPQDL; listed as Homo sapiens) [compound 266]
